Measurements as given in publication PMC4601027, “Structural Analysis of the Pin1-CPEB1 interaction and its potential role in CPEB1 degradation” (Scientific Reports, 2015).
Several values for one entry are separate records, joined by “and”; a condition that tells them apart may be missing. Equal values may be shown once. Non-standard residues stand in square brackets, D forms with d. No end group written: not given here. pS = N[C@@H](COP(=O)(O)O)C(=O)O

Experiments:
full-length Pin1 [1] = molecular target: T1, full-length Pin1 (UniProt Q13526 1-163); assay: native MS; travelling wave ion mobility mass spectrometry (IM-MS), nano-electrospray; unbound full-length Pin1 or Pin1 with CPEB1 pS210, 30-50 μM, 20-50 mM NH4OAc pH 7.2; details: both partners purified
T1 construct: Pin1 (peptidyl-prolyl cis/trans isomerase), full length; WW domain, linker and PPIase (catalytic) domain; Uniprot Q13526 is printed for the WW construct; 15N-labelled for NMR; The vector has a TEV cleavage site; Monomer by IM-MS; also called Pin1 full-length; full-length Pin1 protein; source: recombinant; clone from Addgene (Dustin Maly's Lab) in pMCSG7
T1 sequence (Q13526 whole entry, the tested form may be a part): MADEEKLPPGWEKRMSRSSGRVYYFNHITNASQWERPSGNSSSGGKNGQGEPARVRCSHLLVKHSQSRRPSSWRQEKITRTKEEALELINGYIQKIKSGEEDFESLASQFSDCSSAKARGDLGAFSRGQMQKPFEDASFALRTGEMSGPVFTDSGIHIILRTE

full-length Pin1 [2] = molecular target: T1, full-length Pin1; assay: ITC; nano ITC, 12 °C or 25 °C; 20 mM Tris-HCl pH 7.0, 130 mM NaCl; 10- to 15-fold concentrated peptide injected (16 x 3 μL) into 190 μL of protein at 150-200 μM; single-site fit, except Pin1 full-length with pS210; details: both partners purified

- stoichiometry N (full-length Pin1 [1]): 1 ligands per Pin1 and 2 ligands per Pin1
- stoichiometry N (full-length Pin1 [2]): 0.85
B1: CPEB1 pS210 peptide (peptide)
chain: RI[pS]PPLPF-NH2
